# ± gives the standard deviation of the averaged measurements.
# Test system: ATP
# Assay: switch fluorescence ratio, 500 uM ATP over buffer (Cy3 cluster intensity, sum of 5 cycles each) (fold (ratio)); higher = stronger signal-on switching upon ATP binding; sequences stand for … in TCGTCGGCAGCGTCAGATGTGTATAAGAGACAGTTTTTTTTTTTTTTTTTTTTTTTTT…TC
# Conditions: aptamer strand: ATP DNA aptamer (quencher-CACCTGGGGGAGTATTGCGGAGGAAGG + anchor), 100 nM annealed; ATP concentration: 500 uM
# Procedure, shortened: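 Values give the fluorescence ratio for each switch-domain sequence, averaged from per-cluster ratios of summed target-cycle to summed buffer-cycle Cy3 intensity. The Cy3-labelled switching-strand clusters sat on a modified Illumina MiSeq flow-cell, were annealed to 100 nM quencher-labelled ATP aptamer, and were imaged in selection buffer, then after 15 min with 500 uM ATP at 22 °C. Five cycles ran with NaOH stripping and re-annealing between them, and clusters outside 100-1000 RFU were excluded.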
# 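Further: ATP exposure 15 min at 22 °C before imaging.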
row,Sequence,switch fluorescence ratio
1,TACCTCATGG,1.01 ± 0.054
2,CCGTGCTTTT,1.08 ± 0.047
3,CGCGGGGGGT,0.992 ± 0.018
4,GGGGACCGGG,1.07 ± 0.094
5,GAAGTGGTTT,0.997 ± 0.025
6,TTTTTTGCGT,0.987 ± 0.047
7,CTTAATTATA,1.01 ± 0.015
8,TAGGTAATTT,0.968 ± 0.041
9,TTGTTAGGAA,1.01 ± 0.02
10,CTATACGGAG,1.09 ± 0.13
11,ACATAGATTA,1.03 ± 0.016
12,GTCCGAAGGC,0.988 ± 0.014
13,TGAGAAGCGG,0.97 ± 0.039
14,CTCGGGGGGA,1.01 ± 0.018
15,CTATTAATGT,0.989 ± 0.028
16,AAGGGGTAGT,0.997 ± 0.025
17,CTAGAATAGG,0.985 ± 0.028
18,GGATAGTGTT,0.988 ± 0.016
19,GCATGTATAG,1.015 ± 0.0046
20,TTTCAGAAAG,0.986 ± 0.011
21,GTTGGATAGG,1.01 ± 0.016
22,TTTCATTTCT,1 ± 0.018
23,AGTAGGGTCC,1.03 ± 0.029
24,CACGTATTGG,1.11 ± 0.017
25,TGAGAAAGGA,0.99 ± 0.028
26,ATGTTAACGG,1.01 ± 0.012

row,Sequence,switch fluorescence ratio
1,GAAGTAGGCG,1.03 ± 0.028
2,TCTCTTTTTA,1.02 ± 0.023
3,AAAAATGTGT,0.971 ± 0.01
4,TACGTGGGTA,1 ± 0.0047
5,TTTTTGGGGC,1.03 ± 0.072
6,TAACTAGGGG,1.49 ± 0.042
7,CATTTGCGGA,0.981 ± 0.055
8,ATTGCCGGGA,1.01 ± 0.0089
9,GCGTTAGTTG,1.01 ± 0.057
10,GCTGGGCGGA,1.04 ± 0.039
11,ATATATGGAG,1.011 ± 0.00029
12,TTTAGGAAAA,1 ± 0.029
13,GATTTAGACT,1.04 ± 0.071
14,TTATTATTGG,0.986 ± 0.013
15,TTGTGTTTGG,0.992 ± 0.014
16,GTAGTTATGG,1.04 ± 0.03
17,TTATGAATTT,0.98 ± 0.026
18,GCTGGAAAGG,1.01 ± 0.079
19,CGCTGCTCGA,1.06 ± 0.013
20,CAGGGTGCTG,0.973 ± 0.033
21,TGCCTAAGTA,1.02 ± 0.018
22,CTGGGAACGA,0.998 ± 0.035
23,CAGAGATCTG,0.9732 ± 0.0053
24,ATACAAGGCA,0.956 ± 0.053
25,TTCCAATTTG,1 ± 0.014
26,CGGGTAATTT,1.03 ± 0.019

row,Sequence,switch fluorescence ratio
1,ATTCGGTAA,0.9962 ± 0.0072
2,GGTGTTAGAC,0.976 ± 0.029
3,GCTATAGTGG,1.04 ± 0.035
4,CGGGTTCGCC,0.981 ± 0.012
5,ATTTGCGGTG,1.01 ± 0.019
6,TGAGAGGGGT,1.05 ± 0.042
7,TGGATTATTA,1.02 ± 0.014
8,TTAGCTTGG,0.999 ± 0.061
9,TATAAAGTGG,1.03 ± 0.022
10,GGGTGGCGGT,1.01 ± 0.021
11,TAGGGCACGA,0.97 ± 0.08
12,ACCCGTACTT,1.15 ± 0.033
13,TTAGGTGTTT,1.54 ± 0.69
14,ATTCATGGGA,1.02 ± 0.031
15,AATATAGGCG,1.04 ± 0.073
16,TTGCCGGCTC,1.03 ± 0.029
17,TTTCCATTTT,1.02 ± 0.074
18,GAATTAGAGA,1.03 ± 0.033
19,TCCCGATTGG,0.959 ± 0.028
20,TGGGGTGGAG,0.97 ± 0.032
21,GGGGCGGTGC,1.03 ± 0.023
22,TCGCTGCTTG,1.065 ± 0.0074
23,GGGGGGTATC,1.01 ± 0.03
24,TTAGGAGCGG,1.04 ± 0.047
25,GATACTCGCG,1.03 ± 0.0056
26,AGGGTGAGCG,0.997 ± 0.022

row,Sequence,switch fluorescence ratio
1,GGTGAGGCTG,0.996 ± 0.015
2,ATGTTGTCTG,1 ± 0.035
3,CAGTCGGTCA,1.01 ± 0.032
4,TTAAGTCAAG,0.98687 ± 0.00044
5,CGACAAGCAG,1.09 ± 0.026
6,AGTTTGGGCA,0.975 ± 0.029
7,ACGGGGAGTC,1.039 ± 0.0052
8,GTGGGAAAAA,1.01 ± 0.0085
9,AGACCATAGA,1.02 ± 0.024
10,TAATTAGGAA,1.02 ± 0.03
11,TCGGTTTTAC,1.033 ± 0.0061
12,GGAGCAGTTT,1.12 ± 0.019
13,TTTTATATAA,1.02 ± 0.039
14,GTGAGTGCCT,1.006 ± 0.01
15,GGGGTGGGAT,0.998 ± 0.016
16,GCGGTGGTTT,0.998 ± 0.017
17,GCTGGAGCCA,1.03 ± 0.019
18,TTAAAAATGT,0.958 ± 0.069
19,ACGATGACAC,1.289 ± 0.0018
20,TTGGGGTGGT,0.993 ± 0.032
21,GTTATCTCTT,0.996 ± 0.033
22,GTGTAAGTA,0.9702 ± 0.0042
23,TTTTTAGCGA,1.09 ± 0.058
24,ATGTCGGGCA,0.986 ± 0.064
25,GATATAAGCT,1.05 ± 0.066
26,TTGACAATGG,0.99 ± 0.012

row,Sequence,switch fluorescence ratio
1,TTGCGGCCTT,1.09 ± 0.081
2,TTGTTTTTAC,1.07 ± 0.052
3,TATTTATGGG,0.978 ± 0.023
4,GGGAAGATTG,0.966 ± 0.052
5,CCAGGGGGCA,1.13 ± 0.14
6,TCTTATATTT,0.9977 ± 0.0021
7,TTTCAGAGGG,0.992 ± 0.011
8,AAAATTGTTT,1.01 ± 0.031
9,CTAGTCATGC,1.06 ± 0.0097
10,ACACGGGGGG,1.04 ± 0.022
11,GTTAATACCC,1.04 ± 0.014
12,AAGGAATAGG,0.98 ± 0.016
13,TTCTGGTTAC,1.059 ± 0.004
14,AAGAGATATA,1.008 ± 0.0037
15,ATGGATTGAT,0.9621 ± 0.0051
16,CATATTTT,0.971 ± 0.047
17,TGTTTGCCAG,1 ± 0.05
18,CGGCTACCCG,0.989 ± 0.049
19,TGGGAATATG,1 ± 0.036
20,TCGGGAAGGG,0.991 ± 0.014
21,TTAGTTTTTG,0.98 ± 0.017
22,TCATTTCCGG,1.046 ± 0.0072
23,TGGTAGGGGG,0.9867 ± 0.0046
24,TTGGTTTGGT,0.988 ± 0.03
25,AAAACCGCGA,1.59 ± 0.28
26,GTGTTTGGCT,0.972 ± 0.024

row,Sequence,switch fluorescence ratio
1,AATATTTTGG,1.013 ± 0.0037
2,GTGGGGTATG,0.977 ± 0.032
3,AAAGGATTTA,1.02 ± 0.061
4,AGTTCTCAGT,0.997 ± 0.018
5,TGAAGATTTA,1.03 ± 0.017
6,GGGGACTGGT,1 ± 0.043
7,CTTTAAGGTG,1.39 ± 0.062
8,AAGGGCTTCA,1.031 ± 0.0074
9,CAAGGGTGTG,0.988 ± 0.012
10,ACGGGTGACC,1.03 ± 0.032
11,TTTAATGTCC,0.976 ± 0.07
12,GGGCGCAGGG,1.01 ± 0.01
13,CCACCGGGGC,2.3 ± 0.12
14,AAGTTTTTTA,0.993 ± 0.023
15,GTTATGTTTG,1.01 ± 0.045
16,TGGTGGTGTA,0.954 ± 0.035
17,GCCCATGGGT,1.07 ± 0.12
18,TGATAATTGT,1.01 ± 0.034
19,AGCTAGCGAT,1.02 ± 0.034
20,TCCTGGATGG,0.98 ± 0.022
21,CCTAAAAGTT,1.01 ± 0.05
22,TCCGTTTCGG,0.997 ± 0.047
23,TGTGTTTATA,1.013 ± 0.0095

# — the supplement of paper PMC10126150
